Test results published in PMC6895265.

Assays:
[1] = target: TCF4 bHLH domain (Homo sapiens) (UniProt P15884); assay: ITC; details: ITC: 20 mM Tris pH 7.5, 150 mM NaCl, 25 C
[2] = target: TCF4 bHLH domain (Homo sapiens) (UniProt P15884); assay: FP; details: 25 C

Sequence of TCF4 bHLH domain (Homo sapiens) (P15884 565-624): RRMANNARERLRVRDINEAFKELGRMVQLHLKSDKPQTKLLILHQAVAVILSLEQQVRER

“ACGCACGTGCGT (double strand) [12-mer CG-flanked, X=C]” was tested, and the Kd [1] was 370 nM.

For “CCGGTCACGTGTCCTA (double strand) [FAM 16-mer E-box C/C]”, the Kd ([2]; ITC: 20 mM Tris pH 7.5, 150 mM NaCl) was 110 nM.

With “CCGGTCACGTGTCCTA (double strand) [FAM 16-mer central CpG 5caC/C]” the Kd ([2]; 5caC at strand 1 C8, ITC: 20 mM Tris pH 7.5, 150 mM NaCl) was 140 nM.

Work on “CCGGTCACGTGTCCTA (double strand) [FAM 16-mer central CpG F/C]” yielded a Kd ([2]; 5fC at strand 1 C8, ITC: 20 mM Tris pH 7.5, 150 mM NaCl) of 190 nM.

Work on “CCGGTCACGTGTCCTA (double strand) [FAM 16-mer central CpG H/C]” yielded a Kd ([2]; 5hmC at strand 1 C8, ITC: 20 mM Tris pH 7.5, 150 mM NaCl) of 160 nM.

In the case of “CCGGTCACGTGTCCTA (double strand) [FAM 16-mer central CpG M/C]”, the Kd ([2]; 5mC at strand 1 C8, ITC: 20 mM Tris pH 7.5, 150 mM NaCl) is reported as 160 nM.
